# Results: publication PMC10786891, “Massively parallel profiling of RNA-targeting CRISPR-Cas13d”
# Positions count from the first letter of the chain named. Numbers in names are those of the source.
# T1: EsCas13d, nuclease-dead (Eubacterium siraeum, UniProt B0MS50, R295A;H300A;R849A;H854A)
# T1 sequence: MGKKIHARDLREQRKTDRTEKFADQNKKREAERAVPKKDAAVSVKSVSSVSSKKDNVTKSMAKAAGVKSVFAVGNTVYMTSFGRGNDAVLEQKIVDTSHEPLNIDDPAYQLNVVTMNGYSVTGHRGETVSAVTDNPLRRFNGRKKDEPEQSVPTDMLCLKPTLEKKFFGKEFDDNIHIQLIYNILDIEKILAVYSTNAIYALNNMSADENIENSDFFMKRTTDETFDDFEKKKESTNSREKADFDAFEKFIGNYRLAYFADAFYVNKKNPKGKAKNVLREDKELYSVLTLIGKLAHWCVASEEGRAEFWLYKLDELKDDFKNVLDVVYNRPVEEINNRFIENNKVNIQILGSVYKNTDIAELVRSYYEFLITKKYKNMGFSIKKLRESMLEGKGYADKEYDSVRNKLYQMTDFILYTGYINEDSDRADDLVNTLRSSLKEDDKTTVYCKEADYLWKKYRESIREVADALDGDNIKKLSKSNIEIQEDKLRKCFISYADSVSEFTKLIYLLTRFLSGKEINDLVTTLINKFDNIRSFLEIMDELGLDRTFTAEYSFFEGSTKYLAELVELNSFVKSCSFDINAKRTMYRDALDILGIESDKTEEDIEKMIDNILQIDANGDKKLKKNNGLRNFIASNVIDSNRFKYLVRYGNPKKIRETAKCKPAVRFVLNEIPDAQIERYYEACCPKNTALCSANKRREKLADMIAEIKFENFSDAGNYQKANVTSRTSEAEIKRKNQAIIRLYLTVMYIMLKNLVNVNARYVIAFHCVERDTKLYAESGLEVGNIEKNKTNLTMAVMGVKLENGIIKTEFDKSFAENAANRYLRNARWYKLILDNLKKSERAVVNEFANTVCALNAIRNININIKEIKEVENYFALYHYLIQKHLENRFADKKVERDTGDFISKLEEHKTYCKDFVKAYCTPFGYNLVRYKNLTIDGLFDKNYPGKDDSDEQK
# B1: target 1 U3A,C7G (mixed)
# RNA 1: CACCCGUGCAAAAAUGCAGGGGUCUAAAACUGAGCGGAUAACCUCUCUAUGG
# RNA 2: GGGAAUGGAUCCACAUCUACGAAUUCGUACCAUAGAGAGGUUAUGCGCACACCGAGAUCGGAAGAGCACACGU
# B2: target 1 U11G,A16U (mixed)
# RNA 1: B1 RNA 1
# RNA 2: B1 RNA 2 with A36U, U41G, G45C, A49U
# B3: target 1 C7A,U10C (mixed)
# RNA 1: B1 RNA 1
# RNA 2: B1 RNA 2 with U42C, G45A, A49U
# B4: target 1 insU 3' of 9,insG 3' of 8 (mixed)
# RNA 1: B1 RNA 1
# RNA 2: GGGAAUGGAUCCACAUCUACGAAUUCGUACCAUAGAGAGGUUAUUGCCGCUCACCGAGAUCGGAAGAGCACACGU
# B5: target 2 MT 5'PFS UGC 3'PFS CGC (mixed)
# RNA 1: CACCCGUGCAAAAUUGCAGGGGUCUAAAACCUUCUCCAAAUUGUUUCAUCCU
# RNA 2: GGGAAUGGAUCCACAUCUACGAAUUCUGCAGGAUGAAACAAUUUGGAGAAGCGCAGAUCGGAAGAGCACACGU
# B6: target 2 MT 5'PFS UUA 3'PFS AAA (mixed)
# RNA 1: B5 RNA 1
# RNA 2: B5 RNA 2 with G28U, C29A, C52A, G53A, C54A
# B7: target 2 MT 5'PFS GCU 3'PFS CUG (mixed)
# RNA 1: B5 RNA 1
# RNA 2: B5 RNA 2 with U27G, G28C, C29U, G53U, C54G
# B8: target 2 MT 5'PFS AAU 3'PFS AAG (mixed)
# RNA 1: B5 RNA 1
# RNA 2: B5 RNA 2 with U27A, G28A, C29U, C52A, G53A, C54G
# B9: target 2 MT 5'PFS UUA 3'PFS AAC (mixed)
# RNA 1: B5 RNA 1
# RNA 2: B5 RNA 2 with G28U, C29A, C52A, G53A
# B10: target 2 MT 5'PFS UUA 3'PFS AAG (mixed)
# RNA 1: B5 RNA 1
# RNA 2: B5 RNA 2 with G28U, C29A, C52A, G53A, C54G
# B11: target 2 MT 5'PFS UGA 3'PFS ACA (mixed)
# RNA 1: B5 RNA 1
# RNA 2: B5 RNA 2 with C29A, C52A, G53C, C54A
# B12: target 2 MT 5'PFS GAA 3'PFS CGA (mixed)
# RNA 1: B5 RNA 1
# RNA 2: B5 RNA 2 with U27G, G28A, C29A, C54A
# B13: target 2 MT 5'PFS AAU 3'PFS AAC (mixed)
# RNA 1: B5 RNA 1
# RNA 2: B5 RNA 2 with U27A, G28A, C29U, C52A, G53A
# B14: target 2 MT 5'PFS UGA 3'PFS AGC (mixed)
# RNA 1: B5 RNA 1
# RNA 2: B5 RNA 2 with C29A, C52A
# B15: target 2 MT 5'PFS GCU 3'PFS CUA (mixed)
# RNA 1: B5 RNA 1
# RNA 2: B5 RNA 2 with U27G, G28C, C29U, G53U, C54A
# B16: target 2 MT 5'PFS CGG 3'PFS AUC (mixed)
# RNA 1: B5 RNA 1
# RNA 2: B5 RNA 2 with U27C, C29G, C52A, G53U
# B17: target 2 MT 5'PFS UAU 3'PFS UCU (mixed)
# RNA 1: B5 RNA 1
# RNA 2: B5 RNA 2 with G28A, C29U, C52U, G53C, C54U
# B18: target 2 MT 5'PFS UUC 3'PFS CCC (mixed)
# RNA 1: B5 RNA 1
# RNA 2: B5 RNA 2 with G28U, G53C
# B19: target 2 MT 5'PFS GAA 3'PFS AUU (mixed)
# RNA 1: B5 RNA 1
# RNA 2: B5 RNA 2 with U27G, G28A, C29A, C52A, G53U, C54U
# B20: target 2 MT 5'PFS AAG 3'PFS AUU (mixed)
# RNA 1: B5 RNA 1
# RNA 2: B5 RNA 2 with U27A, G28A, C29G, C52A, G53U, C54U
# B21: target 2 MT 5'PFS AAG 3'PFS AUC (mixed)
# RNA 1: B5 RNA 1
# RNA 2: B5 RNA 2 with U27A, G28A, C29G, C52A, G53U
# B22: target 2 MT 5'PFS GAA 3'PFS CGC (mixed)
# RNA 1: B5 RNA 1
# RNA 2: B5 RNA 2 with U27G, G28A, C29A
# B23: target 2 MT 5'PFS UCA 3'PFS UGU (mixed)
# RNA 1: B5 RNA 1
# RNA 2: B5 RNA 2 with G28C, C29A, C52U, C54U
# B24: target 2 MT 5'PFS CGG 3'PFS AUA (mixed)
# RNA 1: B5 RNA 1
# RNA 2: B5 RNA 2 with U27C, C29G, C52A, G53U, C54A
# B25: target 2 MT 5'PFS UGC 3'PFS CGG (mixed)
# RNA 1: B5 RNA 1
# RNA 2: B5 RNA 2 with C54G
# B26: target 2 MT 5'PFS GAA 3'PFS CGG (mixed)
# RNA 1: B5 RNA 1
# RNA 2: B5 RNA 2 with U27G, G28A, C29A, C54G
# B27: target 2 MT 5'PFS AAU 3'PFS AAA (mixed)
# RNA 1: B5 RNA 1
# RNA 2: B5 RNA 2 with U27A, G28A, C29U, C52A, G53A, C54A
# B28: target 2 MT 5'PFS CUU 3'PFS CCC (mixed)
# RNA 1: B5 RNA 1
# RNA 2: B5 RNA 2 with U27C, G28U, C29U, G53C
# B29: target 2 MT 5'PFS UUA 3'PFS AAU (mixed)
# RNA 1: B5 RNA 1
# RNA 2: B5 RNA 2 with G28U, C29A, C52A, G53A, C54U
# B30: target 2 MT 5'PFS CUU 3'PFS CCA (mixed)
# RNA 1: B5 RNA 1
# RNA 2: B5 RNA 2 with U27C, G28U, C29U, G53C, C54A
# B31: target 2 MT 5'PFS AGG 3'PFS AAA (mixed)
# RNA 1: B5 RNA 1
# RNA 2: B5 RNA 2 with U27A, C29G, C52A, G53A, C54A
# B32: target 2 MT 5'PFS CUU 3'PFS CCG (mixed)
# RNA 1: B5 RNA 1
# RNA 2: B5 RNA 2 with U27C, G28U, C29U, G53C, C54G
# B33: target 2 MT 5'PFS CGG 3'PFS AUU (mixed)
# RNA 1: B5 RNA 1
# RNA 2: B5 RNA 2 with U27C, C29G, C52A, G53U, C54U
# B34: target 2 MT 5'PFS UGA 3'PFS ACC (mixed)
# RNA 1: B5 RNA 1
# RNA 2: B5 RNA 2 with C29A, C52A, G53C
# B35: target 2 MT 5'PFS AUG 3'PFS CGC (mixed)
# RNA 1: B5 RNA 1
# RNA 2: B5 RNA 2 with U27A, G28U, C29G
# B36: target 2 MT 5'PFS UGA 3'PFS ACU (mixed)
# RNA 1: B5 RNA 1
# RNA 2: B5 RNA 2 with C29A, C52A, G53C, C54U
# B37: target 2 MT 5'PFS AAU 3'PFS AAU (mixed)
# RNA 1: B5 RNA 1
# RNA 2: B5 RNA 2 with U27A, G28A, C29U, C52A, G53A, C54U
# B38: target 2 MT 5'PFS UGA 3'PFS ACG (mixed)
# RNA 1: B5 RNA 1
# RNA 2: B5 RNA 2 with C29A, C52A, G53C, C54G
# Biological target: T1, EsCas13d, nuclease-dead
# Experiment: crRNA (strand 1, pre-loaded); Mg2+; 40 mM Tris-HCl pH 7.5, 150 mM NaCl, 6 mM MgCl2, 1 mM DTT, 0.1% Tween-20, 0.2 mg/ml BSA; 25 C; 10 min per concentration, then washed
# Settings: tags: His6-TwinStrep-SUMO cleaved; N-terminal SNAP kept (SNAP-Surface 488); label: 3' end held by stalled T7 RNA polymerase
row,Binder,Kd
1,B1,6.64 ± 0.29 nM
2,B2,82 ± 12 nM
3,B3,13.6 ± 0.7 nM
4,B4,8.3 ± 0.5 nM
5,B5,66 ± 11 nM
6,B6,14.6 ± 2.7 nM
7,B7,30 ± 11 nM
8,B8,5.5 ± 0.9 nM
9,B9,18.7 ± 3.1 nM
10,B10,17.5 ± 1.8 nM
11,B11,9.1 ± 1 nM
12,B12,9.2 ± 1.7 nM
13,B13,5.2 ± 0.8 nM
14,B14,6 ± 0.9 nM
15,B15,17 ± 5 nM
16,B16,6.8 ± 1.1 nM
17,B17,81 ± 23 nM
18,B18,~29 nM
19,B19,7.3 ± 1.1 nM

row,Binder,Kd
1,B20,4.1 ± 0.5 nM
2,B21,5.2 ± 0.9 nM
3,B22,7.4 ± 0.5 nM
4,B23,7.8 ± 1.1 nM
5,B24,4.1 ± 0.5 nM
6,B25,38 ± 6 nM
7,B26,9.6 ± 1.5 nM
8,B27,3.2 ± 0.5 nM
9,B28,18 ± 9 nM
10,B29,18 ± 5 nM
11,B30,8.9 ± 1.1 nM
12,B31,4.3 ± 0.9 nM
13,B32,6 ± 0.4 nM
14,B33,4.01 ± 0.28 nM
15,B34,16 ± 4 nM
16,B35,8.1 ± 0.8 nM
17,B36,15.6 ± 3.5 nM
18,B37,4.1 ± 0.6 nM
19,B38,11.6 ± 1.9 nM
